Values quoted from earlier work, collected in publication PMC7143314.

Target: RAF RBD (Homo sapiens) (UniProt P04049)

**Q.** For RAS (from UniProt P01116), which Kd is on record?
**A.** Its Kd is 20 nM.
